Assay results: patent US12116387B2, “Antimicrobial peptides” (priority 2021, dated 2024)
Entries after “also recorded” stand apart in the source; their conditions may differ. Where two headings read alike, the source gives them in different places.

Legend:
[1] = system: E. coli and S. aureus strains; assay: Systemic infection experiments, summary over all strains; settings: 10 mg Kg^−1
Description: To determine the anti-infective activity of mast-MO in a pre-clinical mouse model, the ability of the peptide to kill pathogenic and drug-resistant E. coli and S. aureus strains was tested in a systemic sepsis infection mouse model (FIG. 5). The minimal bacterial load resulting in a lethal dose (LD100) 24 h post-intraperitoneal injection was first determined. […] Mice were infected with the LD100 of bacteria and treated 3 h post-infection with either mast-L (1 and 5 mg Kg^−1) or mast-MO (1, 5 and 10 mg Kg^−1), which were also administered intraperitoneally.
Systemic bacterial infection mouse model. […] The experiment was performed by intraperitoneal (i.p.) injection of the tested peptides to groups of 10 C57BL/6 mice. Each mouse was injected with a 0.5 mL solution of freshly prepared of peptides in PBS. The doses of peptide administered per mouse were 0, 10, 30, 50, 70 and 90 mg Kg^−1 of body weight. Animals were directly inspected for adverse effects for 6 h, and mortality was monitored for 7 days thereafter. Differences between groups were analysed using the Fisher exact test (differences were considered to be statistically significant when the P value was <0.05). Briefly, E. coli ATCC8739 and E. coli 1812446 or S. aureus ATCC 29213 and S. aureus (MRSA) ATCC33591 were plated on tryptic soy agar plus 5% sheep blood (blood agar, Himedia, India) from a frozen stock. Following 24 h of incubation of the agar plate, three isolated colonies were transferred to 1 mL of BHI. The broth culture was incubated overnight (12-16 h) at 37° C. with shaking. […] Mice were challenged with either strain of E. coli ATCC8739 and E. coli 1812446 or S. aureus ATC29213 and S. aureus (MRSA) ATCC33591 in a final volume of 200 μL of PBS by intraperitoneal injection (i.p.). The day of challenge was designated as day 1 of the experiment. Three hours after bacterial injection, mice (n=5) were treated, intraperitoneally, with different concentrations of peptides (1, 5 or 10 mg Kg^−1), LL-37, gentamicin and 10 mg Kg^−1 of imipenem or PBS for 8 days. For bacterial load evaluation, 5 mice per group were used. […]

[2] = system: S. aureus MRSA ATCC33591; assay: Systemic sepsis infection mouse model, MRSA; type: in vivo; settings: 5 mg Kg^−1 i.p.
Description: FIG. 5A-5I pertains to a study of the anti-infective activity of mast-MO against Gram-negative and Gram-positive pathogens in a lethal sepsis infection model. In FIG. 5A mice were infected with bacteria, treated with each peptide or antibiotic and monitored for 8 days. Survival and cell counts after 24 h, respectively, are shown for E. coli ATCC8739 (2×10^4 CFU/mL inoculum) FIG. 5B and FIG. 5C, S. aureus ATCC29213 (2×10^9 CFU/mL inoculum) FIG. 5D and FIG. 5E, E. coli 1812446 (KPC-positive) (2×10^4 CFU inoculum) FIG. 5F and FIG. 5G, and S. aureus (MRSA) ATCC33591 (2×10^9 CFU inoculum) FIG. 5H and FIG. 5I. Mice were treated intraperitoneally (i.p.) with 1, 5 and 10 mg Kg^−1 of mast-L, mast-MO or 10 mg Kg^−1 of the antibiotics gentamicin and imipenem. PBS was used as a control for the untreated group of mice. Treatments were administered 3 h post-infection. Data are expressed as the mean±standard deviation. Statistical analysis was performed using Bonferroni test. […], **p<0.01, ***p<0.001 compared to the untreated control.
Systemic bacterial infection mouse model. […] Animals were humanely killed 24 h after bacterial administration.

[3] = system: IL-12, TNFα, IL-6; assay: Cytokines in peritoneal fluid of infected mice (ELISA); type: in vivo, C57BL/6 mice; settings: tracked for 48 h; mast-MO 10 mg Kg^−1, mast-L 5 mg Kg^−1
Description: […] PBS and imipenem (10 mg Kg^−1) were used as negative and positive controls, respectively. Data were expressed as mean±standard deviation. Statistical analysis was performed using Bonferroni test. ***p<0.001 as significant compared to the control.
To test whether the FLPII motif within the mast-MO sequence led to increased immunomodulatory and chemotactic properties with respect to mast-L, ELISA experiments were performed using the peritoneal fluid collected from mice (FIG. 5a). C57BL/6 mice were infected with both Gram-negative and Gram-positive pathogens and administered either mast-L or mast-MO intraperitoneally. For mice infected with E. coli ATCC8739, we monitored the peritoneal cavity to detect and quantify the release and presence of several immune mediators (FIG. 4E). […] This effect was similar to the positive control group of mice treated with […] (TGA) (FIG. 4B). […] After 24 h, the leukocyte recruitment levels in mast-MO-treated mice dropped to ˜10^6, likely attributed to the resolution of the infection by the peptide (FIGS. 5B and 5C). […] We monitored, via ELISAs, the cytokine profiles present within the peritoneal cavity of mice infected with E. coli ATCC8739 and S. aureus ATCC29213 (FIGS. 4E and FIG. 4F, respectively) and treated with a single dose of peptide. […]

[4] = system: mice
Description: Therefore, the anti-infective activity of mast-MO was then tested in pre-clinical mouse models. First, the toxicity of a single dose of either mast-L or mast-MO administered peritoneally to mice was assessed in order to determine the range of concentrations to be used in subsequent animal experiments. The hemolytic activity of mast-MO (up to 200 μmoL^−1) against murine red blood cells (Table 6) was also tested prior to conducting animal experiments.
Systemic bacterial infection mouse model. Acute toxicity assay was performed based on the work of Navon-Venezia and co-workers (46). The experiment was performed by intraperitoneal (i.p.) injection of the tested peptides to groups of 10 C57BL/6 mice. Each mouse was injected with a 0.5 mL solution of freshly prepared of peptides in PBS. The doses of peptide administered per mouse were 0, 10, 30, 50, 70 and 90 mg Kg^−1 of body weight. Animals were directly inspected for adverse effects for 6 h, and mortality was monitored for 7 days thereafter. Differences between groups were analysed using the Fisher exact test (differences were considered to be statistically significant when the P value was <0.05). Briefly, E. coli ATCC8739 and E. coli 1812446 or S. aureus ATCC 29213 and S. aureus (MRSA) ATCC33591 were plated on tryptic soy agar plus 5% sheep blood (blood agar, Himedia, India) from a frozen stock. Following 24 h of incubation of the agar plate, three isolated colonies were transferred to 1 mL of BHI. The broth culture was incubated overnight (12-16 h) at 37° C. with shaking. […] Mice were challenged with either strain of E. coli ATCC8739 and E. coli 1812446 or S. aureus ATC29213 and S. aureus (MRSA) ATCC33591 in a final volume of 200 μL of PBS by intraperitoneal injection (i.p.). The day of challenge was designated as day 1 of the experiment. Three hours after bacterial injection, mice (n=5) were treated, intraperitoneally, with different concentrations of peptides (1, 5 or 10 mg Kg^−1), LL-37, gentamicin and 10 mg Kg^−1 of imipenem or PBS for 8 days. For bacterial load evaluation, 5 mice per group were used. Animals were humanely killed 24 h after bacterial administration. To detect bacterial colonization, the peritoneal lavage samples were collected under sterile conditions. The peritoneal lavage was obtained by washing the cavity with 5 mL of sterile PBS. Samples were diluted serially, and 100 μL of each dilution was spread in duplicate on appropriate agar plates for the count of developed colonies. Cytokine levels (i.e., IFN-γ, IL-6, IL−10, IL−12p70 and TNF-α) in the peritoneal lavage of the mice both in the absence and presence of peptide treatment were quantified by ELISA (Peprotech, USA) according to the manufacturer's instructions.

NLKALAALAKKIL [Mast-L]
Toxicity when injected systemically in the infection model [1]: had to be euthanized; also recorded: led to toxicity
Survival [2]: 60%
Pro-inflammatory cytokines IL-12, TNFα and IL-6 in the peritoneal cavity [3]: repressed
Gross toxicity, number of mice (TL) ([4]; Dose 5 mg Kg^−1, five mice per group): 2 (TL-1)
Gross toxicity, number of mice (TL) ([4]; Dose 10 mg Kg^−1, five mice per group): 5
Dose above which highly toxic in preliminary mouse experiments ([4]; single dose, peritoneally): higher than 10 mg Kg^−1
